B1: Im7 fusion protein of PsbU (natural protein, Thermosynechococcus elongatus, UniProt Q9F1L5 31-134, looked up)
chain: ATASTEEELVNVVDEKLGTAYGEKIDLNNTNIAAFIQYRGLYPTLAKLIVKNAPYESVEDVLNIPGLTERQKQILRENLEHFTVTEVETALVEGGDRYNNGLYK
notes: PsbU of Thermosynechococcus elongatus, without signal peptide; PsbU is described only as an Im7 fusion protein; source: E. coli Overexpress C43, purified
B2: Im7-CP43 (e-loop of CP43 fused to Im7) (domain or fragment)
chain: not shown
notes: luminal e-loop of CP43 (PsbC) of Thermosynechococcus elongatus; source: cell-free expression (RTS100, 5Prime), purified on the SPR sensor surface via DNase E7; not shown: Im7 (immunity protein 7, with GGSG linker), N-terminal, kept
B3: CyanoP (natural protein, Thermosynechococcus elongatus, UniProt Q8DH84 20-183, looked up)
chain: CSATSGLQAYVDSYDGYEFLYPRGWVQVQVEDPVDVVFHDIIETTENVSVVVNTVASTKSLEELGSPEEVGDRLLRNIIAPSESGRSSALIAATSQKADDKTYYILEYAVTLPGDGNTAQQRHNLSSIAVSRGKVYTLSVSAPEERWPKVEDQFKTIVSSFTVY
notes: CyanoP of Thermosynechococcus elongatus, without signal peptide; Expression vector derived from pIVEX2.4d; tags and purification are told only in the supplementary material; also called recombinant CyanoP; cyanobacterial homolog of higher plant PsbP; source: E. coli Overexpress C43, purified
B4: Im7-pD1 (C-terminal D1 domain with precursor peptide fused to Im7) (domain or fragment)
chain: not shown
B5: Im7-D1a (D1 a-loop fused to Im7) (domain or fragment)
chain: not shown
notes: D1 a-loop, D1 (PsbA1) of Thermosynechococcus elongatus, residues A54-Q113; source: cell-free expression (RTS100, 5Prime), purified on the SPR sensor surface via DNase E7; not shown: Im7 (immunity protein 7, with GGSG linker), N-terminal, kept
B6: Im7-D1pep (C-terminal peptide of processed D1 fused to Im7) (domain or fragment, Thermosynechococcus elongatus, UniProt P0A444 332-344, looked up)
chain: HERNAHNFPLDLA
notes: C-terminal peptide of processed D1, D1 (PsbA1) of Thermosynechococcus elongatus, residues H332-A344; also called D1 peptide; the 13 C-terminal residues of mature D1; source: cell-free expression (RTS100, 5Prime), purified on the SPR sensor surface via DNase E7; not shown: Im7 (immunity protein 7, with GGSG linker), N-terminal, kept
B7: Im7-D2 (C-terminal domain of D2 fused to Im7) (domain or fragment)
chain: not shown
notes: luminal C-terminal domain of D2 (PsbD) of Thermosynechococcus elongatus; source: cell-free expression (RTS100, 5Prime), purified on the SPR sensor surface via DNase E7; not shown: Im7 (immunity protein 7, with GGSG linker), N-terminal, kept
B8: Im7-mD1 (C-terminal D1 domain in its processed form fused to Im7) (domain or fragment)
chain: not shown

How the values were obtained:
Details in all cases: both partners purified
PsbV [1] = target: T1, PsbV (Thermosynechococcus elongatus, UniProt P0A386 27-163); experiment: SPR; Biacore3000, CM5 chip coated with DNase E7; extrinsic proteins as Im7 fusion proteins overexpressed in E. coli; who was immobilised is not told in the main text; details in the supplementary material
T1 construct: PsbV of Thermosynechococcus elongatus, without signal peptide; details of expression and purification are in the supplementary material; also called extrinsic PSII subunit PsbV; source: expressed after a published protocol (Andrews et al., 2005), purified as strep-tagged protein
T1 sequence (looked up): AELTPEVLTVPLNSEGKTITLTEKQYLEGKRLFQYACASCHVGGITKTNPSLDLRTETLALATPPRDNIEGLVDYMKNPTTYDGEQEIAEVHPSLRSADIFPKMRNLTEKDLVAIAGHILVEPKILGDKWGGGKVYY

CyanoP = target: B3; experiment: SPR; Biacore3000, CM5 chip with covalently bound DNase E7; Im7-tagged luminal PSII domain captured from the cell-free reaction mixture (on-chip purification); reference surface with Im7, both surfaces saturated with purified Im7; soluble protein injected as analyte in triplicate; steady state responses fitted to a one site binding isotherm
PsbO = target: T2, PsbO (Thermosynechococcus elongatus, UniProt P0A431 27-272); experiment: as above
T2 construct: PsbO of Thermosynechococcus elongatus, without signal peptide; Expression vector derived from pIVEX2.4d; tags and purification are told only in the supplementary material; also called extrinsic PSII subunit PsbO; source: E. coli Overexpress C43, purified
T2 sequence (looked up): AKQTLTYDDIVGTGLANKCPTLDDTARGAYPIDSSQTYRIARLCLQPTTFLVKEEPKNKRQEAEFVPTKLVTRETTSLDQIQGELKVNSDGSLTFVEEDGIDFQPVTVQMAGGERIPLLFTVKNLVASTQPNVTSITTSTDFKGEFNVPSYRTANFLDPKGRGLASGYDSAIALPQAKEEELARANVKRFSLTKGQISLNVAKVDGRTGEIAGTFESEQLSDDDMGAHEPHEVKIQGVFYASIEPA

PsbV [2] = target: T1, PsbV; experiment: as above
[3] = target: T3, Im7-CP47 (e-loop of CP47 fused to Im7) (Thermosynechococcus elongatus, UniProt Q8DIQ1 255-450); experiment: as above
T3 construct: luminal e-loop of CP47 (PsbB) of Thermosynechococcus elongatus; source: cell-free expression (RTS100, 5Prime), purified on the SPR sensor surface via DNase E7; not shown: Im7 (immunity protein 7, with GGSG linker), N-terminal, kept
T3 sequence (Q8DIQ1 255-450): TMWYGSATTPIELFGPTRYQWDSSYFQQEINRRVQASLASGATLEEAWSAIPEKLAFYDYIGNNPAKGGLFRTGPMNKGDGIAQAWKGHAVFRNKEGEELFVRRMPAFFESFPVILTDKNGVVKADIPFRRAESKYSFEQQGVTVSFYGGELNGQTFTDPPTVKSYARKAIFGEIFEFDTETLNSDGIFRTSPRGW

Row | Binder | Kd (CyanoP) | Kd (PsbO) | further results
1 | B1 | – | – | Kd (PsbV [1]): 146 µM
2 | B2 | 55 µM | ~50 µM | Kd (PsbV [2]): 26 µM
3 | B3 | – | – | Kd [3]: 91 µM
4 | B4 | 76 µM | – | –
5 | B5 | 16.2 µM | 50 to 100 µM | –
6 | B6 | 100 to 150 µM | – | –
7 | B7 | 5.2 µM | ~50 µM | –
8 | B8 | 74 µM | – | –

From article PMC4220643, “Localization of the CyanoP binding site on photosystem II by surface plasmon resonance spectroscopy” (Frontiers in Plant Science, 2014)
